Laboratory results from patent US20110287011A1 (ONCOMED PHARMACEUTICALS, published 2011).

Assays:
Assay in all cases: FACS on HEK293 cells transfected with the DDR1 variant
[1] = biological target: FLAG-tagged human DDR1 S175A variant (human, UniProt Q08345 19-913)
Procedure: (§1) Full length cDNA encoding FLAG-tagged human DDR1 variants were transiently transfected into HEK293 cells using standard procedures as known to one skilled in the art. To determine the capacity of antibodies to bind the DDR1 variants, antibodies were incubated with HEK293 cells transfected with plasmid encoding either wild type DDR1 or one of the point mutation variants. All cells were co-transfected with plasmid encoding GFP. The cells were analyzed by FACS as described herein for binding of the antibodies to wild type DDR1 and to DDR1 variants.

[2] = biological target: FLAG-tagged human DDR1 D68A variant (human, UniProt Q08345 19-913)
Sequence of FLAG-tagged human DDR1 D68A variant (Q08345 other isoform, or with tags, fused parts or gaps D68A D68A limits assumed): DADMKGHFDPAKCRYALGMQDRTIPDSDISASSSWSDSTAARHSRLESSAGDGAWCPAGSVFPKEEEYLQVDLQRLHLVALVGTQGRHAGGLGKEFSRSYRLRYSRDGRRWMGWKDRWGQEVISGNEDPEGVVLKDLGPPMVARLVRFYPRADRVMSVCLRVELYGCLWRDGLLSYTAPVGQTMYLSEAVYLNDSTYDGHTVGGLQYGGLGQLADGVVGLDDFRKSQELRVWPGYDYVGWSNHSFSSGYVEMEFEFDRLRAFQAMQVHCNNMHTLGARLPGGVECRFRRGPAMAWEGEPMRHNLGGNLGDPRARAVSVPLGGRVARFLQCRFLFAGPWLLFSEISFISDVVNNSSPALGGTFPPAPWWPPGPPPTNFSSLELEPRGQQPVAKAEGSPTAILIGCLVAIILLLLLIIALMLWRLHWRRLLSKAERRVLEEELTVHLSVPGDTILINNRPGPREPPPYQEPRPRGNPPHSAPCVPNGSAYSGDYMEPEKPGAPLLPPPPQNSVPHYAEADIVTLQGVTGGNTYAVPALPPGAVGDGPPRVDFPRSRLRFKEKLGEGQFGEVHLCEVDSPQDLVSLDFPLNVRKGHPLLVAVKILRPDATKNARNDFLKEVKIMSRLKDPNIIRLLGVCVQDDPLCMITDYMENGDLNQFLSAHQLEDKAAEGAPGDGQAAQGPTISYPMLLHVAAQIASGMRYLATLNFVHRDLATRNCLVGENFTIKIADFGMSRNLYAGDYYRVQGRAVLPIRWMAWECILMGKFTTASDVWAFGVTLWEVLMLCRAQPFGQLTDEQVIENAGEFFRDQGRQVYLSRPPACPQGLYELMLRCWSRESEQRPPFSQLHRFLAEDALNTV
Procedure: as §1

[3] = biological target: FLAG-tagged human DDR1 R105A variant (human, UniProt Q08345 19-913)
Sequence of FLAG-tagged human DDR1 R105A variant (Q08345 other isoform, or with tags, fused parts or gaps R105A R105A limits assumed): as the sequence (Q08345 other isoform, or with tags, fused parts or gaps D68A D68A limits assumed) above, with A50D, R87A counted along it
Procedure: as §1

[4] = biological target: FLAG-tagged human DDR1 L110A variant (human, UniProt Q08345 19-913)
Sequence of FLAG-tagged human DDR1 L110A variant (Q08345 other isoform, or with tags, fused parts or gaps L110A L110A limits assumed): as the sequence (Q08345 other isoform, or with tags, fused parts or gaps D68A D68A limits assumed) above, with A50D, L92A counted along it
Procedure: as §1

[5] = biological target: FLAG-tagged human DDR1 E113Q variant (human, UniProt Q08345 19-913)
Sequence of FLAG-tagged human DDR1 E113Q variant (Q08345 other isoform, or with tags, fused parts or gaps E113Q E113Q limits assumed): as the sequence (Q08345 other isoform, or with tags, fused parts or gaps D68A D68A limits assumed) above, with A50D, E95Q counted along it
Procedure: as §1

Sequence of FLAG-tagged human DDR1 S175A variant (Q08345 other isoform, or with tags, fused parts or gaps S175A S175A limits assumed): as the sequence (Q08345 other isoform, or with tags, fused parts or gaps D68A D68A limits assumed) above, with A50D, S157A counted along it

binding result [1]: binds | binding result [2]: binds | binding result [3]: binds | binding result [4]: binds | binding result [5]: binds
B1: antibody 20M102 (antibody, mouse IgG1, kappa, V domains shown)
VH: EVQLQQSGSELVKPGASVKMSCKASGYTFTDYFMKWVKQSHGKSLEWIGDINPNNGDTFYIQKFKGKATLTVDKSSSTAYMQLNSLTSEDSAVYYCSRDLAYWGQGTLVAVSS
VL: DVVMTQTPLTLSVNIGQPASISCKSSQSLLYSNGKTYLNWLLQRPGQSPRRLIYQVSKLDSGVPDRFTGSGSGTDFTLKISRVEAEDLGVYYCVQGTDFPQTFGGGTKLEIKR
notes: Mouse monoclonal IgG purified from hybridoma supernatant; also called anti-DDR1 antibody 20M102; hybridoma ATCC PTA-10051
